Each block holds one substance with its values, some of them ahead of it.
Key:
[1] = target: αvβ5 integrin on human cells (human) (UniProt P06756); assay: cell-based or functional assay
[2] = target: αvβ5 integrin on human cells (human) (UniProt P06756); assay: radiolabeled antibody binding on M21 cells (n = 2)
[3] = target: αvβ5 integrin on human cells (human) (UniProt P06756); assay: radiolabeled antibody binding on HT-29 cells (n = 1)
[4] = target: αvβ5 integrin on human cells (human) (UniProt P06756); assay: radiolabeled antibody binding on A375S2 cells (n = 4)
[5] = target: alpha V integrins (αvβ3 and αvβ5) on human cells (human) (UniProt P06756); assay: cell-based or functional assay
[6] = target: αvβ3 integrin on human cells (human) (UniProt P06756); assay: cell-based or functional assay
Sequence of αvβ3 integrin on human cells (human) (P06756 31-1048, chain 1 of 2): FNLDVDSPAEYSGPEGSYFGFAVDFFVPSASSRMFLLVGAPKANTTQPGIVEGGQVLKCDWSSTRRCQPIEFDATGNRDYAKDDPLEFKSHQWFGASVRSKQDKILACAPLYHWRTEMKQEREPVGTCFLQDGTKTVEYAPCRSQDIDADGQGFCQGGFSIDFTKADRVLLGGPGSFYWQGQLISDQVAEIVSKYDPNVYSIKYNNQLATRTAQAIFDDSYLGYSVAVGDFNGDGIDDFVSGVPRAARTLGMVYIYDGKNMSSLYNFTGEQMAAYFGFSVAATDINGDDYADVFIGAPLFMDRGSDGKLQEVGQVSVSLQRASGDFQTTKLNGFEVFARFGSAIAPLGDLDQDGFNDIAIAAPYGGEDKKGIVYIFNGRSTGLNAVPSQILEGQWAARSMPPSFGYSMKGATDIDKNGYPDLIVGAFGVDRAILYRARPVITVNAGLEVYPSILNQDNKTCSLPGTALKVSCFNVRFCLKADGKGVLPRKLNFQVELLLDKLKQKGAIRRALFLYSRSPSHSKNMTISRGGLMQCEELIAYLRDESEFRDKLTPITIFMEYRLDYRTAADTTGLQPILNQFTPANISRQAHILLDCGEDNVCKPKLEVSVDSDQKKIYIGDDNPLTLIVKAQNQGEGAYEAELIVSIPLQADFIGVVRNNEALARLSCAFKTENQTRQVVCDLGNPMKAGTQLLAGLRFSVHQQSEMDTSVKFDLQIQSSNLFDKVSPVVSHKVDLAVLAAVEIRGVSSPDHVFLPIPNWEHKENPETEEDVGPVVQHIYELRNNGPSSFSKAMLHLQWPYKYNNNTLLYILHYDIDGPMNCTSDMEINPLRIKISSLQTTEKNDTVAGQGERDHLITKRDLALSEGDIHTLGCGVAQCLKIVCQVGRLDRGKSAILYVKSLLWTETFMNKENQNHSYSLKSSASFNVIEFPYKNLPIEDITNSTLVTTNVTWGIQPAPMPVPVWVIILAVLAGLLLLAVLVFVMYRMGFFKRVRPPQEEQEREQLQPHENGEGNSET
Sequence of αvβ3 integrin on human cells (human) (P05106 27-788, chain 2 of 2, further chain): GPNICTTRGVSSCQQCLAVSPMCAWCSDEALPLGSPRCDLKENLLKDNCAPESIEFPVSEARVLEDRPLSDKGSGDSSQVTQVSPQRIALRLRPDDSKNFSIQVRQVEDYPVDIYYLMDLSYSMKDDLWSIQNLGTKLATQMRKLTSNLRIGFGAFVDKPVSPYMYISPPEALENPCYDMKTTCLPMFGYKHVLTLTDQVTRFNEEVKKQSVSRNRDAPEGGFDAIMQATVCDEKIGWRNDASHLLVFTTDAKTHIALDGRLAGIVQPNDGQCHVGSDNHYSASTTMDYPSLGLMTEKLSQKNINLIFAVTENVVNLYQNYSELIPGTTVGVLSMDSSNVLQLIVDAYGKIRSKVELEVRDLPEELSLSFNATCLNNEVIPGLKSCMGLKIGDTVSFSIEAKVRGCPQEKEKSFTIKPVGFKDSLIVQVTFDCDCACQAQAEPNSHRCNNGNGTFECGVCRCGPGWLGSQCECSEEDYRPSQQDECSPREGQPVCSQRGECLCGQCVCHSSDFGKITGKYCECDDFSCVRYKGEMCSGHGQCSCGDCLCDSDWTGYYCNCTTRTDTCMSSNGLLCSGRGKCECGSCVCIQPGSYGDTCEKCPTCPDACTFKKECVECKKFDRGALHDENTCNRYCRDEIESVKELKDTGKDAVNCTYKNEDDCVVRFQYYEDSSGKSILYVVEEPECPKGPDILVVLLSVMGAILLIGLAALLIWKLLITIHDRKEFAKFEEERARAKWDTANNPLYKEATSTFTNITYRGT

[7] = target: αvβ3 integrin on human cells (human) (UniProt P06756); assay: radiolabeled antibody binding on A375S2 cells (n = 2)
[8] = target: alpha V integrins (αvβ3 and αvβ5) on human cells (human) (UniProt P06756); assay: 125-I antibody saturation binding on M21 cells (n = 4)
[9] = target: alpha V integrins (αvβ3 and αvβ5) on human cells (human) (UniProt P06756); assay: 125-I antibody saturation binding on M21 cells (n = 8)
[10] = target: alpha V integrins (αvβ3 and αvβ5) on human cells (human) (UniProt P06756); assay: 125-I antibody saturation binding on A375S2 cells (n = 5)
[11] = target: alpha V integrins (αvβ3 and αvβ5) on human cells (human) (UniProt P06756); assay: 125-I antibody saturation binding on A375S2 cells (n = 7)
[12] = target: alpha V integrins (αvβ3 and αvβ5) on human cells (human) (UniProt P06756); assay: 125-I antibody binding on A375S2 and M21 cells, rounded summary
[13] = target: alpha V integrins (αvβ3 and αvβ5) on human cells (human) (UniProt P06756); assay: flow cytometry on M21 cells; labeled CNTO95 2 µg/mL; no competitor (saline)
[14] = target: alpha V integrins (αvβ3 and αvβ5) on human cells (human) (UniProt P06756); assay: flow cytometry on M21 cells; labeled CNTO95 20 µg/mL; no competitor (saline)
[15] = target: alpha V integrins (αvβ3 and αvβ5) on human cells (human) (UniProt P06756); assay: flow cytometry on M21 cells; labeled CNTO95 2 µg/mL; competitor m7E3 IgG 20 µg/mL; design: % Positive: reference not given here
[16] = target: alpha V integrins (αvβ3 and αvβ5) on human cells (human) (UniProt P06756); assay: flow cytometry on M21 cells; labeled CNTO95 20 µg/mL; competitor m7E3 IgG 20 µg/mL
[17] = target: alpha V integrins (αvβ3 and αvβ5) on human cells (human) (UniProt P06756); assay: flow cytometry on M21 cells; labeled CNTO95 2 µg/mL; competitor anti-β3 (AMAC) 20 µg/mL
[18] = target: alpha V integrins (αvβ3 and αvβ5) on human cells (human) (UniProt P06756); assay: flow cytometry on M21 cells; labeled CNTO95 20 µg/mL; competitor anti-β3 (AMAC) 20 µg/mL
[19] = target: alpha V integrins (αvβ3 and αvβ5) on human cells (human) (UniProt P06756); assay: flow cytometry on M21 cells; labeled CNTO95 2 µg/mL; competitor P1F6 (anti-αvβ5) 20 µg/mL; design: % Positive: reference not given here
[20] = target: alpha V integrins (αvβ3 and αvβ5) on human cells (human) (UniProt P06756); assay: flow cytometry on M21 cells; labeled CNTO95 2 µg/mL; competitor VNR139 (anti-αv) 20 µg/mL
[21] = target: alpha V integrins (αvβ3 and αvβ5) on human cells (human) (UniProt P06756); assay: flow cytometry on M21 cells; labeled CNTO95 2 µg/mL; competitor LM609 (anti-αvβ3) 20 µg/mL; design: % Positive: reference not given here
[22] = target: alpha V integrins (αvβ3 and αvβ5) on human cells (human) (UniProt P06756); assay: flow cytometry on M21 cells; labeled CNTO95 20 µg/mL; competitor P1F6 (anti-αvβ5) 20 µg/mL
[23] = target: alpha V integrins (αvβ3 and αvβ5) on human cells (human) (UniProt P06756); assay: flow cytometry on M21 cells; labeled CNTO95 20 µg/mL; competitor VNR139 (anti-αv) 20 µg/mL
[24] = target: alpha V integrins (αvβ3 and αvβ5) on human cells (human) (UniProt P06756); assay: flow cytometry on M21 cells; labeled CNTO95 2 µg/mL; competitor anti-β3 (Chemicon) 20 µg/mL
[25] = target: alpha V integrins (αvβ3 and αvβ5) on human cells (human) (UniProt P06756); assay: flow cytometry on M21 cells; labeled CNTO95 20 µg/mL; competitor LM609 (anti-αvβ3) 20 µg/mL
[26] = target: alpha V integrins (αvβ3 and αvβ5) on human cells (human) (UniProt P06756); assay: flow cytometry on M21 cells; labeled CNTO95 20 µg/mL; competitor anti-β3 (Chemicon) 20 µg/mL

Sequence of αvβ5 integrin on human cells (human) (P06756 31-1048, chain 1 of 2): as the sequence (P06756 31-1048, chain 1 of 2) above
Sequence of αvβ5 integrin on human cells (human) (P18084 24-799, chain 2 of 2, further chain): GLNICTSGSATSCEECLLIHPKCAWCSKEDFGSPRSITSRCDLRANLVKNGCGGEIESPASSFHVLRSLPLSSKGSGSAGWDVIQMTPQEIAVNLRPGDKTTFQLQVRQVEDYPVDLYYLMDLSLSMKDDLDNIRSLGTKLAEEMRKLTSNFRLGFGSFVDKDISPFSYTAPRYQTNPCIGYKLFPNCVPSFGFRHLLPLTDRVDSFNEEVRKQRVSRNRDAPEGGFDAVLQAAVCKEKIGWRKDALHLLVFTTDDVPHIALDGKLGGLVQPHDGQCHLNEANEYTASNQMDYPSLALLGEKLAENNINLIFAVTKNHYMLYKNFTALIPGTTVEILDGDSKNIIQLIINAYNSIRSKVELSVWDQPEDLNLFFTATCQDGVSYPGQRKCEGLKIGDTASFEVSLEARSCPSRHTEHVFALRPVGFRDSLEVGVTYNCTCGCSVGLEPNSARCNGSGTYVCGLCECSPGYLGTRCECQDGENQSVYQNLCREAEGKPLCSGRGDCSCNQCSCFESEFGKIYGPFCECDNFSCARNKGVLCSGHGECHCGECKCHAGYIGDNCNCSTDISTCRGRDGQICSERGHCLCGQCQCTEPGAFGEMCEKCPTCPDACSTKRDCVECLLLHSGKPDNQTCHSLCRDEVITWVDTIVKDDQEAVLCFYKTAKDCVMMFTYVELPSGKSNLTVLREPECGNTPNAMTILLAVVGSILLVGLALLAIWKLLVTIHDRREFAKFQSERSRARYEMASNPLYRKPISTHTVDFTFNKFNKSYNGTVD

A375S.2 cell adhesion to fibrin, % of no-antibody control (10 µg/ml) [1]: 92.9% | A375S.2 cell adhesion to fibrinogen, % of no-antibody control (10 µg/ml) [1]: 99.4% | A375S.2 cell adhesion to fibronectin, % of no-antibody control (10 µg/ml) [1]: 101% | A375S.2 cell adhesion to gelatin, % of no-antibody control (10 µg/ml) [1]: 87.4% | A375S.2 cell adhesion to type I collagen, % of no-antibody control (10 µg/ml) [1]: 101% | A375S.2 cell adhesion to vitronectin, % of no-antibody control (10 µg/ml) [1]: 28.5% | HUVEC adhesion to fibrin, % of no-antibody control (10 µg/ml) [1]: 96.7% | HUVEC adhesion to fibrinogen, % of no-antibody control (10 µg/ml) [1]: 94.5% | HUVEC adhesion to fibronectin, % of no-antibody control (10 µg/ml) [1]: 103% | HUVEC adhesion to gelatin, % of no-antibody control (10 µg/ml) [1]: 94.4% | HUVEC adhesion to type I collagen, % of no-antibody control (10 µg/ml) [1]: 116% | HUVEC adhesion to vitronectin, % of no-antibody control (10 µg/ml) [1]: 39.8% | Receptors per cell (receptors/cell) [2]: 44000 | Receptors per cell (receptors/cell) [3]: 73000 | Receptors per cell (receptors/cell) [4]: 70000
Substance: P1F6 (murine anti-human αvβ5 antibody)

A375S.2 cell adhesion to fibrin, % of no-antibody control (10 µg/ml) [5]: 99.5% | A375S.2 cell adhesion to fibrinogen, % of no-antibody control (10 µg/ml) [5]: 102% | A375S.2 cell adhesion to fibronectin, % of no-antibody control (10 µg/ml) [5]: 100% | A375S.2 cell adhesion to gelatin, % of no-antibody control (10 µg/ml) [5]: 94.6% | A375S.2 cell adhesion to type I collagen, % of no-antibody control (10 µg/ml) [5]: 99.1% | A375S.2 cell adhesion to vitronectin, % of no-antibody control (10 µg/ml) [5]: 104% | HUVEC adhesion to fibrin, % of no-antibody control (10 µg/ml) [5]: 99.7% | HUVEC adhesion to fibrinogen, % of no-antibody control (10 µg/ml) [5]: 108% | HUVEC adhesion to fibronectin, % of no-antibody control (10 µg/ml) [5]: 96.8% | HUVEC adhesion to gelatin, % of no-antibody control (10 µg/ml) [5]: 109% | HUVEC adhesion to type I collagen, % of no-antibody control (10 µg/ml) [5]: 99.3% | HUVEC adhesion to vitronectin, % of no-antibody control (10 µg/ml) [5]: 96.3%
Substance: Human IgG (negative control) (antibody)

A375S.2 cell adhesion to fibrin, % of no-antibody control (10 µg/ml) [6]: 50% | A375S.2 cell adhesion to fibrinogen, % of no-antibody control (10 µg/ml) [6]: 14% | A375S.2 cell adhesion to fibronectin, % of no-antibody control (10 µg/ml) [6]: 104% | A375S.2 cell adhesion to gelatin, % of no-antibody control (10 µg/ml) [6]: 25.2% | A375S.2 cell adhesion to type I collagen, % of no-antibody control (10 µg/ml) [6]: 100% | A375S.2 cell adhesion to vitronectin, % of no-antibody control (10 µg/ml) [6]: 42.1% | HUVEC adhesion to fibrin, % of no-antibody control (10 µg/ml) [6]: 48.1% | HUVEC adhesion to fibrinogen, % of no-antibody control (10 µg/ml) [6]: 14.3% | HUVEC adhesion to fibronectin, % of no-antibody control (10 µg/ml) [6]: 103% | HUVEC adhesion to gelatin, % of no-antibody control (10 µg/ml) [6]: 36.5% | HUVEC adhesion to type I collagen, % of no-antibody control (10 µg/ml) [6]: 109% | HUVEC adhesion to vitronectin, % of no-antibody control (10 µg/ml) [6]: 26.3% | Receptors per cell (receptors/cell) [7]: 300000
Substance: LM609 (murine anti-human αvβ3 antibody, Chemicon)

A375S.2 cell adhesion to fibrin, % of no-antibody control (10 µg/ml) [5]: 43.3% | A375S.2 cell adhesion to fibrinogen, % of no-antibody control (10 µg/ml) [5]: 11.4% | A375S.2 cell adhesion to fibronectin, % of no-antibody control (10 µg/ml) [5]: 103% | A375S.2 cell adhesion to gelatin, % of no-antibody control (10 µg/ml) [5]: 23.2% | A375S.2 cell adhesion to type I collagen, % of no-antibody control (10 µg/ml) [5]: 104% | A375S.2 cell adhesion to vitronectin, % of no-antibody control (10 µg/ml) [5]: 1.4% | HUVEC adhesion to fibrin, % of no-antibody control (10 µg/ml) [5]: 45.1% | HUVEC adhesion to fibrinogen, % of no-antibody control (10 µg/ml) [5]: 34.5% | HUVEC adhesion to fibronectin, % of no-antibody control (10 µg/ml) [5]: 102% | HUVEC adhesion to gelatin, % of no-antibody control (10 µg/ml) [5]: 54.8% | HUVEC adhesion to type I collagen, % of no-antibody control (10 µg/ml) [5]: 97.7% | HUVEC adhesion to vitronectin, % of no-antibody control (10 µg/ml) [5]: 3.3% | Kd [8]: 8.5 nM | Receptors per cell (receptors/cell) [9]: 200000 | Kd [10]: 5.2 nM | Receptors per cell (receptors/cell) [11]: 120000 | Kd [12]: 7 nM | % Positive [13]: 100% | MCF (Median Channel Fluorescence) [13]: 4.33 | % Positive [14]: 100% | MCF (Median Channel Fluorescence) [14]: 14.3 | % Positive [15]: 132% | MCF (Median Channel Fluorescence) [15]: 5.73 | % Positive [16]: 103% | MCF (Median Channel Fluorescence) [16]: 14.7 | % Positive [17]: 106% | MCF (Median Channel Fluorescence) [17]: 4.61 | % Positive [18]: 91% | MCF (Median Channel Fluorescence) [18]: 13.1 | % Positive [19]: 112% | MCF (Median Channel Fluorescence) [19]: 4.87 | % Positive [20]: 106% | MCF (Median Channel Fluorescence) [20]: 4.61 | % Positive [21]: 110% | MCF (Median Channel Fluorescence) [21]: 4.78 | % Positive [22]: 101% | MCF (Median Channel Fluorescence) [22]: 14.5 | % Positive [23]: 104% | MCF (Median Channel Fluorescence) [23]: 14.9 | % Positive [24]: 125% | MCF (Median Channel Fluorescence) [24]: 5.42 | % Positive [25]: 93% | MCF (Median Channel Fluorescence) [25]: 13.3 | % Positive [26]: 91% | MCF (Median Channel Fluorescence) [26]: 13.1
Substance: CNTO 95 (antibody)
